Broadly, the koff is a measure of how fast the partners let go of each other. A high value points to a short-lived complex. Broadly, the kon is a measure of how fast the partners come together. High values mean faster complex formation, low ones slower complex formation. As usually defined, the Kd is the constant that tells how readily two partners part at equilibrium. Read a low Kd as higher affinity.

The target of assay [1] is T1, Murine CD86-mIgG (R&D Systems, Inc) (murine, UniProt P42082 24-244, limits assumed).
T1 construct: also called muCD86
T1 sequence (looked up): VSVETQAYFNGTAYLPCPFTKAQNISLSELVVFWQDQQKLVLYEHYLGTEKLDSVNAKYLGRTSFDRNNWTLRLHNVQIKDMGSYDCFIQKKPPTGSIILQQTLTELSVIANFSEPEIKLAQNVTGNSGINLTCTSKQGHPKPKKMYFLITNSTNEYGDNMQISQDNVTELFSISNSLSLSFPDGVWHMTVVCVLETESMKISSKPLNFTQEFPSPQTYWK
The experiment in a line: SPR (BIAcore T100), murine CD86-mIgG immobilized on CM5; bivalent analyte model, second site. The procedure:
(§1) SPR measurements were performed on a BIAcore™ T100 SPR (Pharmacia Biotech AB, Uppsala) using HBS-EP+ (GE Healthcare) as a running buffer. Murine CD86-mIgG (25 μg/mL in 10 mM sodium acetate, pH 4.0, R&D Systems, Inc) was directly immobilized onto a CM5 chip using standard amine coupling chemistry (Biacore Amine Coupling Kit, GE Healthcare), with final immobilization levels of 150, 493, and 746 Ru. CTLA4-containing constructs were injected for 150 seconds, at a flow rate of 10 μl/min, in a series of concentrations from 4 nM to 8 μM. Dissociation was monitored for 600 seconds (CTLA4 constructs) or 1200 seconds (GL1 constructs), and the surface was regenerated by injecting 10 mM glycine, pH 1.7, for 60 seconds. […] Data were analyzed using BiaEvaluation for the T100 software (version 2.0.1, GE Healthcare).

The target of assay [2] is T1, Murine CD86-mIgG (R&D Systems, Inc). The experiment in a line: SPR (BIAcore T100), murine CD86-mIgG immobilized on CM5; bivalent analyte model, first site. The procedure:
as §1
(In general: SPR reads the build-up and loss of mass on a sensor chip optically.)

For assay [3] the target is unchanged. Put plainly: SPR (BIAcore T100), murine CD86-mIgG immobilized on CM5; steady-state equilibrium fit. The procedure: as §1

B1: GL1::IL10 xceptor (Fc fusion)
chain: EVQLVESAGGLVQPGRSLKLSCAASGFTFSDYYMAWVRQAPTKGLEWVATISHDGSSTYYRDSVKGRFTISRDNAKTILYLQMDSLRSEDTATYFCARQNIMDYWGQGVMVTVSSGGGGSGGGGSGGGGSGGGGSDIVMTQTPSSQAVSAGEKVTMSCKSSQSLLYSRDQSNYLAWYQQKPGQSPKLLIYLASTRESGVPDRFIGSGSGTDFTLTISSVQAEDLADYYCQQHYNYPLTFGSGTKLEIKLEPKSSDKTHTCPPCPAPEAAGAPSVFLFPPKPKDTLMISRTPEVTCVVVDVSHEDPEVKFNWYVDGVEVHNAKTKPREEQYNSTYRVVSVLTVLHQDWLNGKAYACAVSNKALPAPIEKTISKAKGQPREPQVYTLPPSRDELTKNQVSLTCLVKGFYPSDIAVEWESNGQPENNYKTTPPVLDSDGSFFLYSKLTVDKSRWQQGNVFSCSVMHEALHNHYTQKSLSLSPGNSLFNQEVQIPLTESYSPNSSPGQGTQSENSCTHFPGNLPNMLRDLRDAFSRVKTFFQMKDQLDNLLLKESLLEDFKGYLGCQALSEMIQFYLEEVMPQAENQDPDIKAHVNSLGENLKTLRLRLRRCHRFLPCENKSKAVEQVKNAFNKLQEKGIYKAMSEFDIFINYIEAYMTMKIRN
Regarding B1, in assay [1], the “Second Site ka” value is 0.00943 s⁻¹ and the “Second Site kd” value came to 0.0182 s⁻¹. In assay [2], this molecule yielded a koff of 0.00019 s⁻¹ and a kon of 219000 M⁻¹ s⁻¹. The molecule further yielded a Kd in assay [3] of 86.4 nM.

B2: IL10::GL1 xceptor (Fc fusion)
chain: SPGQGTQSENSCTHFPGNLPNMLRDLRDAFSRVKTFFQMKDQLDNLLLKESLLEDFKGYLGCQALSEMIQFYLEEVMPQAENQDPDIKAHVNSLGENLKTLRLRLRRCHRFLPCENKSKAVEQVKNAFNKLQEKGIYKAMSEFDIFINYIEAYITMKIRNLEPKSSDKTHTCPPCPAPEAAGAPSVFLFPPKPKDTLMISRTPEVTCVVVDVSHEDPEVKFNWYVDGVEVHNAKTKPREEQYNSTYRVVSVLTVLHQDWLNGKAYACAVSNKALPAPIEKTISKAKGQPREPQVYTLPPSRDELTKNQVSLTCLVKGFYPSDIAVEWESNGQPENNYKTTPPVLDSDGSFFLYSKLTVDKSRWQQGNVFSCSVMHEALHNHYTQKSLSLSPGNSLFNQEVQIPLTESYSPNSEVQLVESAGGLVQPGRSLKLSCAASGFTFSDYYMAWVRQAPTKGLEWVATISHDGSSTYYRDSVKGRFTISRDNAKTILYLQMDSLRSEDTATYFCARQNIMDYWGQGVMVTVSSGGGGSGGGGSGGGGSGGGGSDIVMTQTPSSQAVSAGEKVTMSCKSSQSLLYSRDQSNYLAWYQQKPGQSPKLLIYLASTRESGVPDRFIGSGSGTDFTLTISSVQAEDLADYYCQQHYNYPLTFGSGTKLEIK
For B2, in assay [1], the “Second Site ka” value was determined as 0.0271 s⁻¹ and the “Second Site kd” value came out at 0.088 s⁻¹. For the same molecule, in assay [2], the koff worked out at 4.4e-05 s⁻¹ and the kon was determined as 67300 M⁻¹ s⁻¹. This molecule also showed a Kd in assay [3] of 95.1 nM.

For the origin of these results see patent publication US20120100139A1 (APTEVO RESEARCH AND DEVELOPMENT, published 2012).
